# Laboratory results reported in patent US20070162998A1.
# Target: papain (cysteine protease) (UniProt P00784)
# Assay: cell-based or functional assay
# UniProt P00784, sequence (P00784 134-345 limits assumed): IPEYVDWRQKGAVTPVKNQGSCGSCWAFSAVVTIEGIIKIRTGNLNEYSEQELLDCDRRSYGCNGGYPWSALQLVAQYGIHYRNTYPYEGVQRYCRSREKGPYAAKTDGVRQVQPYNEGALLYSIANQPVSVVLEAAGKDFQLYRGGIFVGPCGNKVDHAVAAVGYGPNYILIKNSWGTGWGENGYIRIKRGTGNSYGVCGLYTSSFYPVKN
substance,measurement,value
"recombinant CeCPI protein (taro cysteine protease inhibitor, tarocystatin)",residual protease activity of papain on 0.1% gelatin/SDS-PAGE,100
